B1: D-6 aptamer (structured_DNA)
DNA: CGGATCCAGTTACGGAACTGAACAGAAGGGTGGTGTGGTTGGACTGTTCATTCAGTAAGCTTCGG

Target: native human alpha-thrombin (Homo sapiens, UniProt P00734;P00734 328-363;364-622)
Experiment: ITC; ITC: 20 mM HEPES-NaOH, 150 mM NaCl, 5 mM KCl, 2 mM MgCl2, 1 mM CaCl2, pH 7.4, 25 C; EMSA: same plus 0.05% Tween 20 and 10% glycerol, room temperature 30 min, ge

Binder | binding result | Kd [nM]
GATGAACTTGTTGAAACCCAACGGGAGAATCGTTCATT (structured_DNA, natural D-DNA) [D-L-9-2t] | no binding | 
B1 |  | 27
ACGGAACGCGTTTCAAGACTACCGTGTTTGTTCCGT (structured_DNA, natural D-DNA) [D-L-9-1t] | no binding | 

From paper PMC9646512, “Directed evolution and selection of biostable l-DNA aptamers with a mirror-image DNA polymerase”
